The term Kd denotes the constant that tells how readily two partners part at equilibrium. Lower therefore signals higher affinity.

Data on 2 molecules can be found in paper PMC8415317 (Genes & Development, 2021).

Data set [1] deals with T1, ERH-2 (Caenorhabditis elegans, UniProt Q20057).
T1 sequence (Q20057 1-113): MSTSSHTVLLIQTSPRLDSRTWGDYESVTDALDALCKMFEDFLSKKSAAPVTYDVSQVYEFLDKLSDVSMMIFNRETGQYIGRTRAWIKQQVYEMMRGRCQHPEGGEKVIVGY
As to the kind of experiment: Isothermal titration calorimetry, binding to ERH-2. More on the design: species or system C. elegans. As to conditions: ITC, 20 μM ERH-2 in cell, 431 μM TOST-1^FL in syringe; N fixed at 1, not fitted.

The target in a further data set is T2, ERH-2:PID-3^pep 1:2 (Caenorhabditis elegans, UniProt O76616+Q20057).
T2 sequence (Q20057 1-113): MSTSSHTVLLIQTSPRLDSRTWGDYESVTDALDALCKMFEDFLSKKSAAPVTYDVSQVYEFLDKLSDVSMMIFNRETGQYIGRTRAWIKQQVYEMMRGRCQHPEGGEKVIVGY
T2 sequence (O76616 171-203 partner limits assumed): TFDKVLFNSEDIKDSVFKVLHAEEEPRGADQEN
Put plainly: Isothermal titration calorimetry, binding to ERH-2:PID-3^pep 1:2. More on the design: species or system C. elegans. As to conditions: ITC, 25°C, 50 mM Tris, 250 mM NaCl, 1 mM TCEP, pH 7.50; 20 μM ERH-2:40 μM PID-3^pep in cell, 431 μM TOST-1^FL in syringe; average and SD of two or three measurements.

Data set [2] concerns the target T1, ERH-2. As to the kind of experiment: NMR-monitored titration of 15N-labeled ERH-2. Format: binding, C. elegans. The settings on record: TOST-1^FL added to 15N-labeled ERH-2, 25°C.
For data set [3], the system named is ERH-2. As to the kind of experiment: Streptavidin pull-down, TOST-1/PID-1 mVenus-Strep bait with ERH-2. As to conditions: TOST-1 or PID-1 mVenus-Strep bait 10-20 μM, prey 1.2-fold molar excess, 4°C. Format: binding, C. elegans.
The next data set addresses T3, ERH-1 (Caenorhabditis elegans, UniProt Q22640).
T3 sequence (Q22640 1-103): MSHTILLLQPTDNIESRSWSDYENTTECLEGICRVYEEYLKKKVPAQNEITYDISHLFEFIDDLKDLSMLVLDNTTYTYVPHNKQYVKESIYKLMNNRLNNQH
As to the kind of experiment: Streptavidin pull-down, TOST-1/PID-1 mVenus-Strep bait with ERH-1. As to conditions: TOST-1 or PID-1 mVenus-Strep bait 10-20 μM, prey 1.2-fold molar excess, 4°C. The data set is classed as binding, C. elegans.

The next data set has as its system ERH-2/PID-3. Put plainly: SEC assay, ERH-2/TOST-1/PID-3 complex. Format: binding, C. elegans. The settings on record: full-length ERH-2, TOST-1 and PID-3, 1:1 ratio.
Data set [4] has as its system ERH-2 alone, ERH-2/PID-3 subcomplex, full PETISCO. Put plainly: Streptavidin pull-down, TOST-1-mVenus-Strep with ERH-2, ERH-2/PID-3 or PETISCO. The settings on record: TOST-1-mVenus-Strep as bait. The data set is classed as binding, C. elegans.
Data set [5] in a line: SEC-MALS, molecular mass and oligomeric state. Format: physicochemical, C. elegans. In general terms: Size exclusion chromatography separates by hydrodynamic size, large species first.
The test system of data set [6] is ERH-2. Format: binding, C. elegans.
In the next data set the test system is PID-3/TOFU-6 interaction. Format: binding, C. elegans.
The next data set has as its system TOFU-6^RRM. Put plainly: SEC assay, TOFU-6^RRM with PID-3^RRM. As to conditions: 1:1.5 molar ratio, Superdex 200 Increase 10/300. Format: binding, C. elegans.
Data set [7] concerns Cy5-labeled 16-mer oligo(U) RNA. Put plainly: Fluorescence anisotropy RNA binding, Cy5-U16. As to conditions: 100 nM Cy5-U16 RNA, pH 7.5, 15°C. Background: Polarisation of emitted light reports the rotation of a fluorescent probe.
Data set [8] concerns FITC-labeled 28-mer RNA based on the 21U-3372 precursor. As to the kind of experiment: Fluorescence anisotropy RNA binding, FITC-28-mer pre-piRNA. Details: species or system C. elegans. The settings on record: 100 nM FITC-28-mer RNA, pH 7.5, 15°C.

Entries after “also recorded” stand apart in the source; their conditions may differ. Marks after values point to notes of the source that are not given here.

B1: TOST-1^FL: full-length TOST-1 (protein)
chain: MTTAIQYQVIPLADREHSNKVASILENKYKTATNKRITLNERFGVLEKGYTIQATEPETVKNDSDVFFVVHDRNLNSKKEFVENYLAKNPIVNSPEKVFEEEDKENAPTKKAVLKPSSTDEKKLTSSDIYIQEITRSILQSV
modifications: left off: His6, N-terminal, state not stated | Trx, N-terminal, state not stated
For the molecule B1, the “N (stoichiometry)” value in the data set with ERH-2 [1] is given as 1^c. Moreover, the Kd with ERH-2:PID-3^pep 1:2 is 15 ± 2 µM. Further, in the data set with ERH-2 [2], the “amide CSPs of full-length protein vs peptide” value is reported as “very similar amide CSPs”. Besides, the “binding to ERH-2 in streptavidin pull-down” value with ERH-2 [3] is “Both PID-1 and TOST-1 bound ERH-2; also recorded: more efficient bait than PID-1”. Moreover, in the data set with ERH-1, the “binding to ERH-1 in streptavidin pull-down” value is “interacted with ERH-1; also recorded: more efficient bait than PID-1”. For the same molecule, the “trimeric complex formation by SEC” value with ERH-2/PID-3 was “elutes at smaller elution volumes than the dimeric subcomplexes”. In addition, in data set [4], the “pull-down of ERH-2 alone, with PID-3 or within PETISCO” value was “pulled down ERH-2 in all conditions; also recorded: more ERH-2 is pulled down when ERH-2 is in complex with PID-3 or as part of PETISCO”.

B2: PID-3^RRM: PID-3 RRM domain, residues 196–274 (protein)
chain: PRGADQENMLKISGYPGMLNTFGIAQLLTPYRVNGITITGAQSAVVALENKFQVYQAVQDFNGKKLDRNHKLQVSSLVV
modifications: left off: His6, N-terminal, state not stated | GST, N-terminal, state not stated
Take B2: the oligomeric state result in [5] is listed as “homodimers”. Besides, the “binding to ERH-2 in GST pull-down” value with ERH-2 [6] is listed as “failed to bind ERH-2”. Besides, in the data set on PID-3/TOFU-6 interaction, the “PID-3/TOFU-6 interaction in pull-down” value is “the RRM domains of PID-3 and TOFU-6 mediate the interaction between the two proteins”. Also, the “PID-3^RRM/TOFU-6^RRM interaction by SEC” value in the data set with TOFU-6^RRM is recorded as “This is supported by SEC”. Also, the “relative RNA binding affinity” value in [7] and in [8] was “lowest binding affinity” throughout.
